Experimental data as given in article PMC6954185 (Nature Communications, 2020).

Columns and labels:
[1] = biological target: PTP-σ_D1D2 (human), Trx-His6-tagged (human); test: ITC; VP-ITC at 25 °C; 50 mM Tris-HCl pH 7.5, 100 mM NaCl, 1 mM EDTA, 1 mM DTT; liprin-α fragments at 200 μM injected into LAR-RPTP fragments at 20 μM; one-site binding model; N-terminal tags kept
[2] = biological target: PTP-δ_D1D2 (human), Trx-His6-tagged (human); test: as above
[3] = biological target: the molecule itself; test: cell-based or functional assay
[4] = biological target: T1, liprin-α2_SAM123 (C-terminal SAM repeats of human liprin-α2), Trx-His6-tagged (human, UniProt O75334 866-1193); test: ITC; VP-ITC at 25 °C; 50 mM Tris-HCl pH 7.5, 100 mM NaCl, 1 mM EDTA, 1 mM DTT; liprin-α fragments at 200 μM injected into LAR-RPTP fragments at 20 μM; one-site binding model; N-terminal tags kept; conditions: both partners purified
T1 construct: liprin-α2, human, the C-terminal three SAM domains (SAM123); source: E. coli Rosetta BL21(DE3), purified (Ni-NTA, Superdex-200); not shown: Trx, N-terminal, kept; His6, N-terminal, kept
T1 sequence (O75334 866-1193): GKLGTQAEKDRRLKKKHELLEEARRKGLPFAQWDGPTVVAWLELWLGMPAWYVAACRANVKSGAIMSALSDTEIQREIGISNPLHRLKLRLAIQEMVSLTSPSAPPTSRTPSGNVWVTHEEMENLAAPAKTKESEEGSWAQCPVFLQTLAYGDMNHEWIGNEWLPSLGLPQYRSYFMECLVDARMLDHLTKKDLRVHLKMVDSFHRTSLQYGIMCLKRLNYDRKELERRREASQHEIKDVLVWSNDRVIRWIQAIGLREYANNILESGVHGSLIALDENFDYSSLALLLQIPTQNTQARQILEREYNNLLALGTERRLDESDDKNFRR

Sequence of PTP-σ_D1D2 (human), Trx-His6-tagged (human) (Q13332 1393-1948): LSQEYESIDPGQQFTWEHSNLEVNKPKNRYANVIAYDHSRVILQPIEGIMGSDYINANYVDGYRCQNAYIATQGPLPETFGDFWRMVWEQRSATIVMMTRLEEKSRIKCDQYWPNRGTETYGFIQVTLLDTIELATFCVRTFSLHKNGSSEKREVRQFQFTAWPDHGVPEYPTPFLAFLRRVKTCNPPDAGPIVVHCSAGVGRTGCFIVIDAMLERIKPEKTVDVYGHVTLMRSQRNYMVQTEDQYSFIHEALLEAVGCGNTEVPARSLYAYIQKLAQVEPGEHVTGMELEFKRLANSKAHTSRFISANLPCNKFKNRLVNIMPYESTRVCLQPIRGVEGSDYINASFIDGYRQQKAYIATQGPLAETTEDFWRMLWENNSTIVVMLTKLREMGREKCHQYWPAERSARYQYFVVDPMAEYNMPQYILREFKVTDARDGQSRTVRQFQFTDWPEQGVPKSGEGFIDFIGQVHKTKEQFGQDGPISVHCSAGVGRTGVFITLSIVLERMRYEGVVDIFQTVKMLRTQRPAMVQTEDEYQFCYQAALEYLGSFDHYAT
Sequence of PTP-δ_D1D2 (human), Trx-His6-tagged (human) (P23468 1357-1912, stated change not applied): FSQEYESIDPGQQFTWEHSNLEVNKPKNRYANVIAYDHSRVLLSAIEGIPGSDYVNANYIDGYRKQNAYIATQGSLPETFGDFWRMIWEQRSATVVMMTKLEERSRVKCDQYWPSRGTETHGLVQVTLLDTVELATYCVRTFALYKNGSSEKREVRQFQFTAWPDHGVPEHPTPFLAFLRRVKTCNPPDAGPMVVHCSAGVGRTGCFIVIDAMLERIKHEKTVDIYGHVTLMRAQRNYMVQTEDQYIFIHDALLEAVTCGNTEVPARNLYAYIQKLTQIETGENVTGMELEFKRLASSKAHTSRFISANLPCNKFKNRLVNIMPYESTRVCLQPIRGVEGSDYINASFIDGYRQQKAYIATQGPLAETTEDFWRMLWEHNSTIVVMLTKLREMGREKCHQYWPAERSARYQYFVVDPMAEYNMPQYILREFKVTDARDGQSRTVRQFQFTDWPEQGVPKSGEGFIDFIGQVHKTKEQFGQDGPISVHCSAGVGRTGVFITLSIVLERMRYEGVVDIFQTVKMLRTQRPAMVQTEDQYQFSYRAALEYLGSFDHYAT

α2_SAM123ΔInsertion (liprin-α2_SAM123 with the insertion loop connecting SAM1 and SAM2 deleted) (from UniProt O75334 866-1193) (domain or fragment)
Kd [1]: 2.4 µM
Kd [2]: 6.4 µM

B1: LAR_D1D2 L1539C/T1593C double-cysteine mutant (domain or fragment, human)
chain: IPITDLADNIERLKANDGLKFSQEYESIDPGQQFTWENSNLEVNKPKNRYANVIAYDHSRVILTSIDGVPGSDYINANYIDGYRKQNAYIATQGPLPETMGDFWRMVWEQRTATVVMMTRLEEKSRVKCDQYWPARGTETCGLIQVTLLDTVELATYTVRTFALHKSGSSEKRELRQFQFMAWPDHGVPEYPTPILAFLRRVKACNPCDAGPMVVHCSAGVGRTGCFIVIDAMLERMKHEKTVDIYGHVTCMRSQRNYMVQCEDQYVFIHEALLEAATCGHTEVPARNLYAHIQKLGQVPPGESVTAMELEFKLLASSKAHTSRFISANLPCNKFKNRLVNIMPYELTRVCLQPIRGVEGSDYINASFLDGYRQQKAYIATQGPLAESTEDFWRMLWEHNSTIIVMLTKLREMGREKCHQYWPAERSARYQYFVVDPMAEYNMPQYILREFKVTDARDGQSRTIRQFQFTDWPEQGVPKTGEGFIDFIGQVHKTKEQFGQDGPITVHCSAGVGRTGVFITLSIVLERMRYEGVVDMFQTVKTLRTQRPAMVQTEDQYQLCYRAALEYLGSFDHYAT
modifications: intermolecular disulfide bridges between the introduced cysteines (without reducing reagents)
in vitro phosphatase activity of the LAR_D1D2 dimer relative to the monomer fraction, with 2 mM DTT in the reaction buffer [3]: ~80%
in vitro phosphatase activity of the disulfide-linked LAR_D1D2 dimer relative to the monomeric mutant, reaction buffer without DTT [3]: ~40%

B2: LAR_D2 (D2 domain of human LAR), His6-SUMO-tagged (domain or fragment, UniProt P10586 1620-1907, looked up)
chain: LYAHIQKLGQVPPGESVTAMELEFKLLASSKAHTSRFISANLPCNKFKNRLVNIMPYELTRVCLQPIRGVEGSDYINASFLDGYRQQKAYIATQGPLAESTEDFWRMLWEHNSTIIVMLTKLREMGREKCHQYWPAERSARYQYFVVDPMAEYNMPQYILREFKVTDARDGQSRTIRQFQFTDWPEQGVPKTGEGFIDFIGQVHKTKEQFGQDGPITVHCSAGVGRTGVFITLSIVLERMRYEGVVDMFQTVKTLRTQRPAMVQTEDQYQLCYRAALEYLGSFDHYAT
notes: also called D2 domain alone; source: E. coli Rosetta BL21(DE3), purified (Ni-NTA, Superdex-200); not shown: His6, N-terminal, kept; SUMO, N-terminal, kept
Kd [4]: 14 ± 1 µM
